Where two headings read alike, the source gives them in different places.
Columns and labels:
[1] = target: T1, extracellular domain of the prolactin receptor (hPRLbp) (Homo sapiens, UniProt P16471); details: cited from earlier work; for Kd: read-out: Kd, binding to hPRLbp
T1 construct: with the extracellular domain of the prolactin receptor (hPRLbp)
T1 sequence (P16471 25-234 limits assumed): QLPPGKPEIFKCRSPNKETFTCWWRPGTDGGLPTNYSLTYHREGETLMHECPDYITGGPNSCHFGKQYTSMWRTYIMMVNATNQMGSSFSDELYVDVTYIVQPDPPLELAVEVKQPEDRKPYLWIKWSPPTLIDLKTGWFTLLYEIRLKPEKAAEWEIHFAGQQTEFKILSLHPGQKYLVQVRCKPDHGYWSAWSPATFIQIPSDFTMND

[2] = target: IL-8 (CXCL8, interleukin 8) (UniProt P10145); assay: inhibition of 125I-IL-8 binding to neutrophil membranes, (II)
IL-8 (CXCL8, interleukin 8), sequence (P10145 28-99 limits assumed): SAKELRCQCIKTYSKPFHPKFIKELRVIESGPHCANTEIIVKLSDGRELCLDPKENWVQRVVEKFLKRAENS

[3] = target: IL-8 (CXCL8, interleukin 8) (UniProt P10145); assay: inhibition of 125I-IL-8 binding to neutrophil membranes, in the presence of 100 uM ZnCl2
[4] = target: IL-8 (CXCL8, interleukin 8) (UniProt P10145); assay: inhibition of 125I-IL-8 binding to neutrophil membranes; with 100 uM ZnCl2 against without Zn(II)

Question: For “hGH: human growth hormone, binds the extracellular domain of the prolactin receptor (hPRLbp)”, which Kd ([1]; in the absence of Zn(II)) is on record?
Answer: The Kd was 270 nM.

Question: What about the Kd ([1]; in the presence of Zn(II)) of the same substance?
Answer: Its Kd is 0.033 nM.

Question: And the “increase of binding affinity with Zn(II)” value ([1]; presence vs absence of Zn(II))?
Answer: The value was “about 8,000 fold”.

Question: Which Ki [2] does the source give for “synthetic N-terminal peptide CXCR1 (21-residues in length in which Met 12 was replaced by a His to create a Zn(II) binding site)” here?
Answer: Its Ki is 141 µM.

Question: What about the Ki [3] of the same substance?
Answer: The Ki was 1120 nM.

Question: And the fold better inhibition with Zn(II) than in the absence of Zn(II) [4]?
Answer: The fold better inhibition with Zn(II) than in the absence of Zn(II) was 125 fold.

Reference: patent US20040152634A1, “Chemokine antagonists and uses thereof” (priority 2002, published 2004)
